T1: human Trop2 on cells (human, UniProt P09758 27-323)
T1 construct: whole, on cells; also called hTrop2; 293T-human Trop2 cells
T1 sequence (looked up): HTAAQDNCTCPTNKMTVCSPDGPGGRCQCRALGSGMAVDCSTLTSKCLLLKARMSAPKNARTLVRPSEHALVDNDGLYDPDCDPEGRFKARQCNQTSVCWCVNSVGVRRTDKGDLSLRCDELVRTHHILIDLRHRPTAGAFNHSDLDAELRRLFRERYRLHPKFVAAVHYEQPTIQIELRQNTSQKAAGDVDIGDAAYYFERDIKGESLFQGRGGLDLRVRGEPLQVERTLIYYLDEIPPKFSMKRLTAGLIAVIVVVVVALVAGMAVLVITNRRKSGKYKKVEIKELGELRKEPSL

T2: monkey Trop2 protein (Sino Biological, #90893-C08H) (monkey, UniProt A0A2K5UE71 27-274)
T2 construct: bought protein; also called monkey Trop2 protein antigen (His tag)
T2 sequence: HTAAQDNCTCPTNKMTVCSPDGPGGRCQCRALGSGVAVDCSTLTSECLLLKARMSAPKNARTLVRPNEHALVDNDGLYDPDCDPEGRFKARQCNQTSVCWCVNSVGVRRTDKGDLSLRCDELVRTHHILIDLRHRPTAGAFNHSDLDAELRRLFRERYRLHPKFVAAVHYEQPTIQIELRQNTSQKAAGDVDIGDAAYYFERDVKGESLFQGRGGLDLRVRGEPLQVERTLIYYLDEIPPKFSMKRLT

T3: human TROP2 protein (Sino Biological, #10428-H08H) (human, UniProt P09758 27-274)
T3 construct: bought protein; also called human Trop2 protein antigen (His tag); not shown: His tag
T3 sequence (looked up): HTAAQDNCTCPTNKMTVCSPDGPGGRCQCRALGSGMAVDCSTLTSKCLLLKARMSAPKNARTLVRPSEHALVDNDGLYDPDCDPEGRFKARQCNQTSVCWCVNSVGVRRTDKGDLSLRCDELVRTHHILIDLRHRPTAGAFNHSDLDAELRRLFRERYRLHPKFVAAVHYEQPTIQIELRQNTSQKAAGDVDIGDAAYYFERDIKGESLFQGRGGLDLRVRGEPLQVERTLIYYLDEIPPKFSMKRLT


How the values were obtained:
[1] = molecular target: T1, human Trop2 on cells; assay: flow cytometry on BxPC-3 tumor cells
Procedure: BxPC-3 tumor cells (the Cell Bank of the Chinese Academy of Sciences, #TCHu 12) were digested with 3 mL of TrypLE, and the digestion was stopped with 7 mL of the corresponding medium. […] The cell solution was centrifuged, and the cells were washed once with PBS+[…] buffer. […] The cells were washed once with PBS+0.50% BSA. The cells were incubated at 4° C. for 1 h in the dark with 100 μL of Alexa Fluor 488 goat anti-human IgG (Life technologies, #A-11013) diluted at 1:1000, and washed twice with PBS+0.50% BSA. The cells were resuspended in 200 μL of PBS+0.50% BSA. The suspension was centrifuged at 4° C. for 5 min at 2000 rpm and tested using a FACS verse flow cytometer or NovoCyte flow cytometer (ACEA Biosciences). All procedures were performed on ice.

[2] = molecular target: T2, monkey Trop2 protein (Sino Biological, …); assay: BLI, Octet RED96, AHC sensor
Procedure, shortened: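 Biolayer interferometry: human or monkey Trop2 at 200 nM in PBS pH 7.4 with 0.1% BSA and 0.02% Tween 20 captured on AHC sensors, then 40 nM antibody associated 3 min and dissociated 5 min at 30 °C. Association, dissociation constants and affinity fitted from real-time signals.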

[3] = molecular target: T3, human TROP2 protein (Sino Biological, …); assay: BLI, Octet RED96, AHC sensor
Procedure, shortened: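 Sensor loaded w/ 200 nM Trop2 (human or monkey), PBS pH 7.4 + 0.1% BSA + 0.02% Tween 20. Ab 40 nM, assoc 3 min / dissoc 5 min, 30° C. Real-time binding fit for KD, kon, koff.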

[4] = molecular target: T1, human Trop2 on cells; assay: cell-based or functional assay
[5] = molecular target: T1, human Trop2 on cells; assay: cell-based or functional assay; remark: listed apart in the source
[6] = molecular target: T2, monkey Trop2 protein (Sino Biological, …); assay: SPR, Biacore T200, antigen immobilised on CM5 chip
Procedure: (§1) HBS-EP+ (10 mM HEPES, 150 mM NaCl, 3 mM EDTA, and 0.05% P20, pH 7.4, GE Healthcare, BR-1001-88) was used as a running buffer throughout the test. […] Data were analyzed using Biacore T200 (GE Healthcare, T200 model, #BIAC-B20-03) Evaluation 3.1 software.

[7] = molecular target: T3, human TROP2 protein (Sino Biological, …); assay: SPR, Biacore T200, antigen immobilised on CM5 chip
Procedure: as §1

[8] = molecular target: T3, human TROP2 protein (Sino Biological, …); assay: BLI epitope binning (Octet), biotinylated human Trop2 on SA sensor; row = primary antibody; competitor (secondary antibody, column): PR001165
Procedure: The biotinylated mixture after the incubation was washed three times with PBS and a Zeba centrifugal desalting column (Thermo Fisher, #89882) to remove excess biotin. The biotinylated Trop2 protein was captured by an SA sensor (Pall ForteBio, #18-5019) with the loading baseline set at 0.3 nm. The sensor was immersed in a well of assay buffer containing 50 nM primary antibody for 300 s. […] The binding assay was performed by comparing the binding of the secondary antibody to Trop2 in the presence of the primary antibody to the blocking of the primary antibody itself.

| Binder | EC50 [1] [pM] | Maximum MFI value [1] [MFI] | Kd [2] [pM] | Response [2] | koff [2] [s⁻¹] | kon [2] [M⁻¹ s⁻¹] | Kd [3] [pM] | Response [3] | koff [3] [s⁻¹] | kon [3] [M⁻¹ s⁻¹] | further results |
| --- | --- | --- | --- | --- | --- | --- | --- | --- | --- | --- | --- |
| PR001133 (antibody, human IgG1, kappa, V domains shown, fully human IgG1/kappa; also called antibody No. (5)) VH: QVNLVESGGGVVQPGRSLKLSCAASGFTFSSYGMHWVRQAPGKGLEWVALIWSDGTNRYYTESVKGRFTISRDNSKNTLSLQMKSLRAEDTAVYYCAKDGWGTYGEYFQHWGQGTLVTVSS VL: DIQMTQSPSSLSASVGDRVTITCRASQNINSYLHWYQQKPGKAPKLLIYAASSLQSGVPSRFSGSGSGTDFTLTISSLQPEDFAIYYCQQSYSIPPITFGQGTRLEIKR | 2070 | 8950 | 2490 | 0.369 | 0.000149 | 59800 | 1100 | 0.386 | 9.72e-05 | 88500 | – |
| PR001139 (antibody, human IgG1, kappa, V domains shown, fully human IgG1/kappa; also called antibody No. (8)) VH: QVQLVESGGGVVQPGRSLRLSCAASGFTFSSFGMQWVRQGPGKGLEWVAVMWFDGSNKYYVDSVKGRFTISRDNSKNTLYLQMNSLRAEDTAVYYCARLDFSGWPLIDYWGQGTLVTVSS VL: not shown | 3140 | 9360 | 7750 | 0.328 | 0.000528 | 68100 | 4790 | 0.336 | 0.000426 | 89000 | – |
| PR001128 (antibody, human IgG1, kappa, V domains shown, fully human IgG1/kappa; also called antibody No. (1)) VH: QVQLQESGPGLVKPSGTLSLTCAVSGGSISSSNWWSWVRQPPGKGLEWIGEIFHSGTTYYNPSLKSRVTILVDKSKNQFSLKLSSVTAADTAVYYCARDNTKSWDHFDHWGQGTLVTVSS VL: EIVLTQSPATLSLSPGERATLSCRASQSVGSYLAWYQQKPGQAPSLLIYDASNRATGIPARFSGSGSGTDFTLTISSLEPEDFAVYYCQQRTNWYTFGQGTKLEIKR | 1700 | 8410 | < 1 | 0.384 | < 1e-07 | 83500 | < 1 | 0.402 | < 1e-07 | 130000 | – |
| PR001130 (antibody, human IgG1, kappa, V domains shown, fully human IgG1/kappa; also called antibody No. (2)) VH: QVQLQESGPGLVKPSGTLSLTCAVSGDSISSHNWWSWVRQPPGKGLEWIGEIYHSGITSYNPSLKSRVTISVDKSKNQFSLKLNSVTAADTAMYYCARGSGVISYFDYWGQGTLVTVSS VL: DIQMTQSPSTLSASVGDRVTITCRASQSIGNWLAWYQQKPGKAPKLLIYKASSLESGVPSRFSGSGSGTEFTLTISSLQPDDFATYYCQQYDSYSPITFGQGTRLEIKR | 3850 | 9960 | < 1 | 0.315 | < 1e-07 | 37700 | < 1 | 0.357 | < 1e-07 | 55200 | – |

Second part, led by results:

| EC50 [1] [pM] | Maximum MFI value [1] [MFI] | Kd [2] [pM] | Response [2] | koff [2] [s⁻¹] | kon [2] [M⁻¹ s⁻¹] | Kd [3] [pM] | Response [3] | koff [3] [s⁻¹] | kon [3] [M⁻¹ s⁻¹] | Binder | further results |
| --- | --- | --- | --- | --- | --- | --- | --- | --- | --- | --- | --- |
| 1120 | 9110 | 3660 | 0.37 | 0.000732 | 200000 | 1700 | 0.366 | 0.000507 | 298000 | PR001162 (antibody, human IgG1, kappa, V domains shown, fully human IgG1/kappa; also called antibody No. (23)) VH: QVQLVESGGGVVQPGTSLRLSCVASGFTFSNDGMHWVRQAPGMGLEWVAIMWFDGGSKYYADSVKGRFTISRDNSKNTLYLQMNNLRAEDTAVYYCARDHPHYLGSGSFDYWGQGTLVTVSS VL: EIVLTQSPATLSLSPGERATLSCRASQSVSSYLAWYQQKPGQAPRLLIYDASNRATGIPARFSGSGSGTDFTLTISSLQAEDVAVYYCQQYYSTPYTFGQGTKLEIKR | fold lower EC50 than the reference antibody hRS7 [1]: ~2 fold |
| 1150 | 10800 | 260 | 0.382 | 4.29e-05 | 165000 | 323 | 0.39 | 8.78e-05 | 272000 | PR001142 (antibody, human IgG1, kappa, V domains shown, fully human IgG1/kappa; also called antibody No. (9)) VH: QVQLQESGPGLVKPSGTLSLTCAVSGDSISSNNWWSWVRQPPGKGLEWIGEIYPGGNPNYNPSLKSRVTISVDKSKNQFSLKLNSVTAADTAVYYCARGSGVISYFDYWGQGTLVTVSS VL: DIQMTQSPSTLSASVGDRVTITCRASQSIGHWLAWYQQKPGKAPKLLIYKASSLESGVPSRFRGSGSGTEFTLTISSLQPDDFATYYCQQYSSYSPITFGQGSRLEIKR | ADCC (donor 1152#) EC50(nM), BxPC-3 + PBMC, LDH release [4]: 0.0279 nM; ADCC (donor 1152#) Maximum cell killing % [4]: 41.6%; ADCC (donor 1152#) Minimum cell killing % [4]: 4.47%; ADCC (donor 2153#) EC50(nM), BxPC-3 + PBMC, LDH release [4]: 0.0547 nM; ADCC (donor 2153#) Maximum cell killing % [4]: 58.8%; ADCC (donor 2153#) Minimum cell killing % [4]: 9.28%; fold lower EC50 than the reference antibody hRS7 [1]: ~2 fold; ADCP (Donor A1925144#) EC50(nM), BxPC-3 + macrophages [5]: 0.0362 nM; ADCP (Donor A1925144#) Maximum phagocytosis % [5]: 12%; ADCP (Donor A1925144#) Minimum phagocytosis % [5]: 0.861%; ADCP (Donor A19143143#) EC50(nM), BxPC-3 + macrophages [5]: 0.199 nM; ADCP (Donor A19143143#) Maximum phagocytosis % [5]: 36.4%; ADCP (Donor A19143143#) Minimum phagocytosis % [5]: 1.75%; Kd [6]: 374 pM; koff [6]: 0.000179 s⁻¹; kon [6]: 479000 M⁻¹ s⁻¹; Kd [7]: 530 pM; koff [7]: 0.000252 s⁻¹; kon [7]: 475000 M⁻¹ s⁻¹; Inhibition rate (%) [8]: 99.2% |
| – | – | 260 | 0.393 | 2.62e-05 | 101000 | < 1 | 0.38 | < 1e-07 | 164000 | PR001165 (antibody, human IgG1, kappa, V domains shown, fully human IgG1/kappa; also called antibody No. (26)) VH: QVQLVESGGGVVQPGRSLRLSCEASGFTFSHYGMHWVRQAPGKGLEWVAVIWYDGIKTYYVESVKGRFTISRDNSKNTLNLQMNRLRAEDTAVYYCARDGGFGESNYYGLDVWGQGTTVTVSS VL: DIQLTQSPSFLSASVGDRVTITCRASQGISSYLGWYQQKPGKAPKLLIYIASTLQSGVPSRFSGSGSGTEFTLTISSLQPEDFATYYCQQLNSYPYTFGQGTKLEIKR | ADCC (donor 1152#) EC50(nM), BxPC-3 + PBMC, LDH release [4]: 0.0324 nM; ADCC (donor 1152#) Maximum cell killing % [4]: 39%; ADCC (donor 1152#) Minimum cell killing % [4]: 5.79%; ADCC (donor 2153#) EC50(nM), BxPC-3 + PBMC, LDH release [4]: 0.0616 nM; ADCC (donor 2153#) Maximum cell killing % [4]: 70.8%; ADCC (donor 2153#) Minimum cell killing % [4]: 14%; ADCP (Donor A1925144#) EC50(nM), BxPC-3 + macrophages [5]: 0.0683 nM; ADCP (Donor A1925144#) Maximum phagocytosis % [5]: 12.5%; ADCP (Donor A1925144#) Minimum phagocytosis % [5]: 2.25%; ADCP (Donor A19143143#) EC50(nM), BxPC-3 + macrophages [5]: 0.178 nM; ADCP (Donor A19143143#) Maximum phagocytosis % [5]: 42.7%; ADCP (Donor A19143143#) Minimum phagocytosis % [5]: 1.37%; Kd [6]: 491 pM; koff [6]: 0.000125 s⁻¹; kon [6]: 255000 M⁻¹ s⁻¹; Kd [7]: 495 pM; koff [7]: 0.000152 s⁻¹; kon [7]: 307000 M⁻¹ s⁻¹; Inhibition rate (%) [8]: 97.7%; fold lower KD than the reference antibody Tab (hRS7) [3]: ~10 fold |
